# Experimental data as given in the nanobody polyreactivity screen of Harvey et al. (2022).
# Test: yeast display, Sf9 membrane polyspecificity reagent, FACS + sequencing; frameworks hold sequencing errors
# In short: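 Polyreactivity labels are assigned by the sorting gate from which each nanobody was recovered. The gates were low and high (top ~1%), set on anti-HA fluorescence for expression and streptavidin fluorescence for reagent binding. Before sorting, galactose-induced (36–48 hours) yeast display cells were stained for 1 hour at 4 °C with 10% biotinylated, detergent-solubilized Sf9 membrane reagent.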
row,Sequence,polyreactivity (PSR sort gate)
1,QVQLVESGGGLVQAGGSLRLSCAASGRTFTGNAMGWYRQAPGKERELVAAISTSGTRTSYADSVKGRFTISRDNAKNTVYLQMNSLKPEDTAVYYCAALRKSLYRTYTYDYWGQGTQVTVSS,high polyreactivity
2,QVQLVESGGGLVQAGGSLRLSCAASGRIFRYNAMGWYRQAPGKERELVAAISYRTGSTHYADSVKGRFTISRDNAKNTVYLQMNILKPEDTAVYYCAYVPGYCYWGQGTQVTVSS,low polyreactivity
3,QVQLVESGGGLVQAGGSLRLSCAASGFTFGTYAMGCYRPAPGKERELVAAISKRGGSTYYADSVKGRFTISRDNAKNTVYLQMNSLKPEDTAVYYCAATRPYSHRDYFYWGQGTQVSVSS,high polyreactivity
4,QVQLVESGGGLVQAGGSLRLSCAASGSTFSRNAMGWYRQAPGKERELVATISRSGRTNYADSVKGRFTISRDNAKNTVYLQMNSLKPEDTAVYYCNAGYRRSYEYWGQGTQVTVSS,low polyreactivity
5,QVQLVESGGRLVQAGGSLRLSCAASGLTFDPNDMGWYRQAPGKERELVAAISWSSGSTYYADSVKGRFTISRDNAKNTVYLQMNSLKPEDTAVYYCAAYFTLLFGTELYDYDYWGQGTQVTVSS,high polyreactivity
6,QVQLVESGGGLVQPGGSLRLLFAASGSNFVYNEMGWYRQAPGKERELVAGIDWSGDRTYADSVKRRFTNSRDNAKNTVYLQMNSLKQEDTAVKYCNADEWLWDEIIPFAVDYWGQGTQVTVSS,low polyreactivity
7,QVQLVESGGGLVQAGGSLRLSCAASGSIFPTYAMGCYRQAPGKERELVAAIRSGSNTYYADSVKGRFTISRDNAKNTVYLQMNSLKPEDTAVYYCNVGPQRKYPGRRTVPFGYWGQGTQVTVSS,low polyreactivity
8,QVQLVESGGGLVQAGGRLRLSCAASGRIFYNYAMGWYRQAPGKERELVAAISVSGGSTYYADSVKGRFTISRDNAKNTVYLQMISMKPEDTAVYYCATYSSRQRKSSYYYGGQGTQVTVSS,high polyreactivity
9,QVQLVESGGGLVQAGGSLRLSCASSGRIFDQYAMGWYRQAPGKERELVAAISSDDGSTYYADSVKGRFTISRDNAKNTVYLQMNSLKPEDTAVYYCAADAWRYVDYDYWGQGTQVTVSS,low polyreactivity
10,QVQLVESGGGLVQAGGSLRLSCAASGSIFPDYAMGWYRPAPGKERELVAAIDTSTTDTYYADSVKGRFTISRDNAKNTVYLQMKSQKPEDTAVYYSAADAYDDPYGFWGQGTQVTVSS,high polyreactivity
11,QVQLVESGGGLVQAGGSLRLRCAASGSISWLYSMGCYSQAPGKERELVAAISWGGGDTYYADSVKGRFTISRDNAKNTVYLQMHSLKPEDTEVFYCAADSDYYWLAYDYWGQGTQVTLSS,low polyreactivity
12,QVQLVESGGGLVQAGGSLRLSCAASGSTSWIYAMGWYRQAPGKERELVAAISGRDGSTNYADSVKGRFTISRDNAKNTVYLQMNSLKPEDTAVYYCNATGRRFNRYGGDYWGQGTQVTVSS,high polyreactivity
13,QVQLVESGGGLVQAGGSLRLSCAASGRIFWYYTMGWYRQAPGKERELVASINSDTGTYYADSVKGRFTISRDNAKNTVYLQMNSLKPEDTAVYYCNKDDYALSNTWRPEYDYWGQGTQVTVSS,low polyreactivity
14,QVQHVESGGGLVQAGGSLRLSCAASGITFSSYAMGWYRQAPGKERELVAAISSGGSTYYADSVKGRFTISRDNAKNTVYFQMNSLKPEDTAVYYCAAELATYVPNKWYYRYTGYYYWGQGTQVTVSS,low polyreactivity
15,QVQLVESGGGLDQAGGSLRLSCAASGSTFYFYAMGWYRQAPGKEMELVAVISSGGRTYYADSVKGRFTISRDNAKNTVYLQMNSLKPEDTAVYYCAASWPSSLTYYYWGQGTQVTVSS,low polyreactivity
16,QVQLVESGGGIVQAGVSLRLSCAASGSTFESNAMGWYRQAPGKECELVASISGSGGSTFYADSVKGRFTISRDNAKNTVYLHMNSLKPEDTARYYCAAYKEPYYEESGYWGQVTQVTVSS,low polyreactivity
17,QVQLVESGGGLVQAGGSLRLSCAASGSIICVNAMGWYRQATGKERELVAAISSTGGSTYYADSVKGRFTISRDNAKNTVYLQMNSLKPEDTAVYYCNTDYSKSIGDGYAGFDYWGQGTQVTVSS,low polyreactivity
18,QVQLVESGGGLVQAGGSLRLSCAASGRTFKYYAMGWYRQAPGKERELVASISASGGSTRYADSVKGRFTISRDNAKNTVYLQMNSLKPEDTAVYYCAADRGYKYYYWGLGTQVTVSS,high polyreactivity
19,QVQLVESGGGVVQAGGSLRISCAASRLIFRRNAMGWYGQAPGKERELVAAISRTGGSTYDADSVKGRFTISRDNAKNPVYLQRNSLIPEDTAVYYCATDTRDYDYTDEYWGHGTQVTVSS,low polyreactivity
20,QVQLVETGGGLVQAGGSLRLSCAASGLTFYDYAMGWYRQAPGKERELVADIDFNGGSTSYADSVKGRFTISRDNAKNTVYLQMNSLKPEDTAVYDCNTRDRGDVVTGLDYWGQGTQVTVSS,low polyreactivity
21,QVQLVESGGGLVQAGGSLRFSCAASGINFYFNAMGWYRQAPGKERELVAVITSGGSTNYADSVKGRFTISRDNAKNTVYLQMNSLKPEDTAVYYCATDKSYSSWSAQYVYWGQGTQVTVSS,low polyreactivity

row,Sequence,polyreactivity (PSR sort gate)
1,QVQLVESGLGLVQAGGSLRLSCAASGFTFTGYAMGWYRQAPGKERELVAAITRGGGSTYYADSVKGRFTISRDNAKNTVYLQMNSLKPEDTAVYYCAAQRSRLIRISSPYYGHEYWVQGTQVTVSS,low polyreactivity
2,QVQLVESGGVLVQAVGSLRLSCAASGRIFKNYAMGWYIQAPGKESELVAAISWSGGRTYYADSVKGRFTISRDNAKNTVYLQMNSLKPEDTAVYYCAVDFYYYGSRYYYWGQGTQVTVSS,high polyreactivity
3,QVQLVESGGGLVQAGGSLRLSCAASGRTSIGYARGWYRQAPGKERELVAVISIGGTTYYADSVKGRFTISRDNAKNTVYLQMNSLKPEDTAVYYCAADSFPAYLGFVGFDYWGQGTQVTVSS,low polyreactivity
4,QVQLVESGGGIVQAGGSLRLSCAASGLTFYVYAMGWYREAPGKEREFVAAITWSGGSTYYADSVKGRFTISRDNAKNTVYLQMNSLKPEDTAVYYCAAETLWSELYYWGQGTQVTVSS,high polyreactivity
5,QVQLVESGGGLVQAGGSLRLSCAASGRTFISYAMGWYRQAPGKERELVAGISTSGDNTYNADSVKGRFTISRDNAKNTVYLQMNSLKPEDTAVYYCAAGQDLHDFDYWGQGTQVTVSS,low polyreactivity
6,QVQLVESGGGLVQAGGSLRLSCAASGSIFKWYAMGWYRQAPGKERELVAAITRGGSTNYADSVKGRFTISRDNAKNTVYLQMNSLKAEDTAVYYCNAVYTYRSGFGYWGQGTQVTVSS,low polyreactivity
7,QVQLVESGGGLVQAGGSLRLSCAASGSIFDYYAMGWYRQAPGKERELVAAISSSGDTTYYADSVKGRFTISRDTAKNTVYLQMNSLKPEDTAVYYCAARVRGYRHASNYYWGQGTQVTVSS,high polyreactivity
8,QVQLVESVGGLVQAGGSLRLSCAASGFTSWDNDMGWYRQAPGKERELVAAISRGGSTNYADSVKGRFTISRDNAKNTVYLQMNSLKPEDTAVYYCATAAVTPVWYDYWGQGTQVTVSS,low polyreactivity
9,QVQLVESGGGLVQAGGSLRLSCAASGIFSHYALGWYRQAPGKERELVAAISSSGGRTYYADSVKGRFTISRDNAKNTVYLQMNSLKPEDTAVYYCAAPWRSSPYHFYYWGQGTQVTVSS,high polyreactivity
10,QVQLVESGGGLVQAGGSLRLSCAASGLIIVYNAIGWYRHAPGKERELVAGITSGGSTNYADSEKGRFTISRDNAKKTVYLQMNSLKPEDTAVYYCNAPVTGAGTYPPYDSWGQGTQVTVSS,high polyreactivity
11,QVQLVESGGGLVQAGGSLRLSCAASGRTFYIYTMGWYRQAPGKERELVATAITSGGITYYADSVKGRFTISRDNAKNTVYLQMNSLKPEDTAVYYCAADDYYGYYGFNYWGQGTQVTVSS,low polyreactivity
12,QVQLVESGGGLVQAGGSLRLSCDASGSISIGYTMGWYRQAPGKERELVATISWSGGNTYYADSVKGRFTISRDNAKNTVYLQMNSLKPEDTAVYYCAARWYYYPLLYDYWGQGTQVTVSS,low polyreactivity
13,QVQLVESGGVLVQAGGSLRLTCAASGFIFKIYAMGWYRQAPGKERELVARITRSGGSTYYADSVKGRFTNSRDNAKNTVYLQMNSLKPEDTAVYYCNAELFRYVRYEYWGQGTQVTVSS,high polyreactivity
14,QVQLVESGGGLVQAGGSLRLSCAACGFTFYYYAMGWYRQAPGKERELVASISASGGITYYADSVKGRFTISRDNAKNTVYLQMNSLKPEDTAVYYCATRQGYRLYYWGQGTQVNVSS,high polyreactivity
15,PVQLEESGGGLVQAGGSLRLSCPASGTSAYYARGWYRQAPGKERALVAGISIGGSTNYADSVKGRFTITRDNAKNTVYVQMTSLKPEDTAVAYCSVDGYVAFSPDRNNYWGQGTQVTVSS,low polyreactivity
16,QVQLVESGGGLVQAGGSLRLSCAASGFIFWYYAMGWYRQAPGKERELVARITRIGGRTYYADSVKGRFTISRDNAKNTVYLQMNSLKPEDTAVYYCAKDVDKYRYDYWGQGTQVTVSS,high polyreactivity
17,QVQLVESGGGLVQAGGSLRLRCAASGRTFGRYAMGWYRQAPGKERELVAAISTSGGSTFYADSVKGRITISRDNAKNTVYLLMNSLKPEDTAVYYCAADYRRFWGRYGYWGQGTQVTVSS,high polyreactivity
18,QDQLVESGRGLVEAGGSLRLSCAASGRILGRYAMGWNRQAPGKERELVAAISRSGGTTYYADSVKGRFTISRDNAKNTVYLEMNSLKPEDTAVYDCARLRVYAAVYDYWGQGTQVTVSS,high polyreactivity
19,QVQLVESGGGLVQAGGSLRLSCAASGSTFDYNAMGWYRQAPGKERELVADITGSGASTSYADSVKGRFTISRDNAKNTVYLQMNSLKPEDTAVYFCAADQTPVGQVYYGTLSIRDYWGQGTQVTVSS,low polyreactivity
20,QVQLVESGGGLVQAGGSLRLSCAASGRTFVYNAMGWYRQAPGKERELVAAIDGGGDRTYYADSVKGRFTISRDNAKNTVYLQMNSLKPEDTAVYYCARDPVVTYYYSYPEGDYWGQGTQVTVSS,low polyreactivity
